Source: patent publication US20050137135A1 (priority 2002, published 2005)
Square brackets hold non-standard residues; d marks the D form. Ends that are not written are not given here. Peptide text beside a SMILES is read from it. Ahx = NCCCCCC(=O)O

T1: rat pancreatic islet (wild type) GIP-receptor (Rattus norvegicus, UniProt P43219)
T1 construct: expressed in transfected cells; host or cells: CHO-K1 (Chinese hamster ovary)
T1 sequence (P43219 19-455): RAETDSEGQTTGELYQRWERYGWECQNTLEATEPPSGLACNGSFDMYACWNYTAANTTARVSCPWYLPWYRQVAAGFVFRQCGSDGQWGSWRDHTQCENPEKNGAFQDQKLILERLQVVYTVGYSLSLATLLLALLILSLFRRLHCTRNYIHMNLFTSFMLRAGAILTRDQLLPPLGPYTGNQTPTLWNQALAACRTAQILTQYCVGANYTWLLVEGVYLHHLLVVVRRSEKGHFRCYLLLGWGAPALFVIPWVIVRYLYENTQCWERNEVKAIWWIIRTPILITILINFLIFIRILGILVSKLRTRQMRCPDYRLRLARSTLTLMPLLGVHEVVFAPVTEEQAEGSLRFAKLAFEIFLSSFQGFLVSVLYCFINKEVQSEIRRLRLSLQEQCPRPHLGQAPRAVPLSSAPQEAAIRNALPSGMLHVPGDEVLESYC

T2: rat pancreatic islet (wild type) GIP-receptor stably expressed on CHO-K1 cells (rat, UniProt P43219 19-455)
T2 construct: whole, on cells; also called wtGIPR cells; wtGIP-R1 cells
T2 sequence (looked up): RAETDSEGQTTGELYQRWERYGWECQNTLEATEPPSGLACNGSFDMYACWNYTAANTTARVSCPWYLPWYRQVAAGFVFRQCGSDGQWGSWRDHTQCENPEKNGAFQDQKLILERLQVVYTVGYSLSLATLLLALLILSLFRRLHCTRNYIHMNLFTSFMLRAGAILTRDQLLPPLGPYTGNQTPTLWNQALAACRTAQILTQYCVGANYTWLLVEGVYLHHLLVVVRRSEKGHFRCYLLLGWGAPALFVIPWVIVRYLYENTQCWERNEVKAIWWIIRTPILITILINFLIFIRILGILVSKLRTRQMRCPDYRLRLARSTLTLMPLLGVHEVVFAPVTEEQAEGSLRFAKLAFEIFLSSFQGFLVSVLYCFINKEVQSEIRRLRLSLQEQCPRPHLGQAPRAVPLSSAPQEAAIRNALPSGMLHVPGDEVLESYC

B1: GIP(1-6)(AAAA)(19-30)NH2 (peptide)
peptide: YAEGTFAAAAQQDFVNWLLAQK-NH2
notes: range 1-6;range 19-30; also called GIP(l-6)(AAAA)(19-30)NH2
B2: GIP(1-6)(Ahx)2(19-30)NH2 (peptide, UniProt P09681 52-57, looked up)
peptide: YAEGTF[Ahx][Ahx]QQDFVNWLLAQK-NH2
modifications: N-terminus assumed
SMILES: CC(C)C[C@H](NC(=O)[C@H](CC(C)C)NC(=O)[C@H](Cc1c[nH]c2ccccc12)NC(=O)[C@H](CC(N)=O)NC(=O)[C@@H](NC(=O)[C@H](Cc1ccccc1)NC(=O)[C@H](CC(=O)O)NC(=O)[C@H](CCC(N)=O)NC(=O)[C@H](CCC(N)=O)NC(=O)CCCCCNC(=O)CCCCCNC(=O)[C@H](Cc1ccccc1)NC(=O)[C@@H](NC(=O)CNC(=O)[C@H](CCC(=O)O)NC(=O)[C@H](C)NC(=O)[C@@H](N)Cc1ccc(O)cc1)[C@@H](C)O)C(C)C)C(=O)N[C@@H](C)C(=O)N[C@@H](CCC(N)=O)C(=O)N[C@@H](CCCCN)C(N)=O
notes: range 52-57
B3: GIP(1-14)(19-30)NH2 (peptide, UniProt P09681 52-65, looked up)
peptide: YAEGTFISDYSIAMQQDFVNWLLAQK-NH2
notes: range 1-14;range 19-30; Core deletion, no linker (formula 6, D unused, truncated at residue 30)
B4: GIP(1-6)(19-30)NH2 (peptide, UniProt P09681 52-57, looked up)
peptide: YAEGTFQQDFVNWLLAQK-NH2
notes: range 1-6;range 19-30; Core deletion, no linker (formula 5, C not used, truncated at residue 30)
B5: GIP(1-6)(Ahx)3(19-30)NH2 (peptide, UniProt P09681 52-57, looked up)
peptide: YAEGTF[Ahx][Ahx][Ahx]QQDFVNWLLAQK-NH2
modifications: N-terminus assumed
SMILES: CC(C)C[C@H](NC(=O)[C@H](CC(C)C)NC(=O)[C@H](Cc1c[nH]c2ccccc12)NC(=O)[C@H](CC(N)=O)NC(=O)[C@@H](NC(=O)[C@H](Cc1ccccc1)NC(=O)[C@H](CC(=O)O)NC(=O)[C@H](CCC(N)=O)NC(=O)[C@H](CCC(N)=O)NC(=O)CCCCCNC(=O)CCCCCNC(=O)CCCCCNC(=O)[C@H](Cc1ccccc1)NC(=O)[C@@H](NC(=O)CNC(=O)[C@H](CCC(=O)O)NC(=O)[C@H](C)NC(=O)[C@@H](N)Cc1ccc(O)cc1)[C@@H](C)O)C(C)C)C(=O)N[C@@H](C)C(=O)N[C@@H](CCC(N)=O)C(=O)N[C@@H](CCCCN)C(N)=O
notes: range 52-57
B6: GIP(1-6)(EKEEKEKEEKE)(19-30)NH2 (peptide)
peptide: YAEGTFEKEEKEKEEKEQQDFVNWLLAQK-NH2
notes: range 1-6;range 19-30; The expected mass 3574.0 fits the 11-residue linker as printed
B7: GIP(1-6)(Ahx)1(19-30)NH2 (peptide, UniProt P09681 52-57, looked up)
peptide: YAEGTF[Ahx]QQDFVNWLLAQK-NH2
modifications: N-terminus assumed
SMILES: CC(C)C[C@H](NC(=O)[C@H](CC(C)C)NC(=O)[C@H](Cc1c[nH]c2ccccc12)NC(=O)[C@H](CC(N)=O)NC(=O)[C@@H](NC(=O)[C@H](Cc1ccccc1)NC(=O)[C@H](CC(=O)O)NC(=O)[C@H](CCC(N)=O)NC(=O)[C@H](CCC(N)=O)NC(=O)CCCCCNC(=O)[C@H](Cc1ccccc1)NC(=O)[C@@H](NC(=O)CNC(=O)[C@H](CCC(=O)O)NC(=O)[C@H](C)NC(=O)[C@@H](N)Cc1ccc(O)cc1)[C@@H](C)O)C(C)C)C(=O)N[C@@H](C)C(=O)N[C@@H](CCC(N)=O)C(=O)N[C@@H](CCCCN)C(N)=O
notes: range 52-57

Columns and labels:
[1] = target: T1, rat pancreatic islet (wild type) GIP-receptor; test: cAMP production in CHO-K1 cells expressing the GIP-receptor (wtGIP-R1 cells); format: cell-based; conditions: Table 3; cyclic AMP stimulated by 20 μM peptide if plateau levels were not achieved
Method: (§1) Cells were cultured in DMEM/F12, supplemented with 10% newborn calf serum, 50 units/ml penicillin G, and 50 μg/ml streptomycin (Culture media and antibiotics from Gibco BRL, Life Technologies). Cells were grown in 75 cm^2 flasks until 80-90% confluent, when they were split and seeded onto 24 well plates at a density of 50,000 cells/well. Experiments were carried out 48 h later.
Cells were extracted with 70% ethanol and cAMP levels measured by radioimmunoassay (Biomedical Technologies, Stoughton, Mass.). Data are expressed as fmol/1000 cells or % maximal GIP1-42-stimulated cAMP production (inhibition experiments).

[2] = target: T1, rat pancreatic islet (wild type) GIP-receptor; test: biochemical; format: binding; conditions: read-out: Receptor Binding % Displacement at 20 μM
Method: as §1
(§2) Binding studies using ^125I-labeled spGIP1-42, purified by high performance liquid chromatography (HPLC), were performed essentially as described previously-[21]. wtGIP-R1 Cells (1-5×10^5/well) were washed twice at 4° C. in binding buffer (BB), consisting of DMEM/F12 (GIBCO), 15 mM HEPES, 0.1% bovine serum albumin (BSA), 1% Trasylol (aprotinin; Bayer), pH 7.4. They were incubated for 12-16 h at 4° C. with ^125I-spGIP (50,000 cpm) in the presence or absence of unlabeled GIP1-42 or analogue. Following incubation, cells were washed twice with ice cold buffer, solubilized with 0.1 M NaOH (1 ml), and transferred to culture tubes for counting of cell-associated radioactivity. Nonspecific binding was defined as that measured in the presence of 1 μM GIP1-42 or GIP1-30, and specific binding expressed as % of binding in the absence of competitor (% B/Bo).

[3] = target: T2, rat pancreatic islet (wild type) …; test: displacement of 125I-GIP from CHO-K1 cells transfected with rat GIP receptor, 20 µM peptide
Method: as §1, with “cm²” for “cm^2”
as §2, with “¹²⁵I-labeled spGIP₁₋₄₂,” for “^125I-labeled spGIP1-42,”, “(1-5×10⁵/well)” for “(1-5×10^5/well)”, “¹²⁵I-spGIP” for “^125I-spGIP”, “GIP₁₋₄₂” for “GIP1-42”, “GIP₁₋₃₀,” for “GIP1-30,”

[4] = target: T2, rat pancreatic islet (wild type) …; test: competition with 125I-GIP on CHO-K1 cells transfected with rat GIP receptor
Method: as §1, with “cm²” for “cm^2”
as §2, with “¹²⁵I-labeled spGIP₁₋₄₂,” for “^125I-labeled spGIP1-42,”, “(1-5×10⁵/well)” for “(1-5×10^5/well)”, “¹²⁵I-spGIP” for “^125I-spGIP”, “GIP₁₋₄₂” for “GIP1-42”, “GIP₁₋₃₀,” for “GIP1-30,”

[5] = target: T2, rat pancreatic islet (wild type) …; test: cell-based or functional assay

Molecule | cAMP Production Max. cAMP (Fold Basal) [1] [Fold Basal] | inhibition at 20 µM [2] [%] | % Displacement at 20 µM [3] [%] | IC50 [4] [nM] | Max. cAMP (Fold Basal) [5] [fold basal] | cAMP Production EC50 [5] [nM]
CC[C@H](C)[C@H](NC(=O)[C@H](CO)NC(=O)[C@H](Cc1ccc(O)cc1)NC(=O)[C@H](CC(=O)O)NC(=O)[C@H](CO)NC(=O)[C@@H](NC(=O)[C@H](Cc1ccccc1)NC(=O)[C@@H](NC(=O)CNC(=O)[C@H](CCC(=O)O)NC(=O)[C@H](C)NC(=O)[C@@H](N)Cc1ccc(O)cc1)[C@@H](C)O)[C@@H](C)CC)C(=O)N[C@@H](C)C(=O)N[C@@H](CCSC)C(=O)NCCCCCC(=O)N[C@@H](CCC(N)=O)C(=O)N[C@@H](CCC(N)=O)C(=O)N[C@@H](CC(=O)O)C(=O)N[C@@H](Cc1ccccc1)C(=O)N[C@H](C(=O)N[C@@H](CC(N)=O)C(=O)N[C@@H](Cc1c[nH]c2ccccc12)C(=O)N[C@@H](CC(C)C)C(=O)N[C@@H](CC(C)C)C(=O)N[C@@H](C)C(=O)N[C@@H](CCC(N)=O)C(=O)N[C@@H](CCCCN)C(N)=O)C(C)C [GIP(1-14)(Ahx)1(19-30)NH2] (H-YAEGTFISDYSIAM[Ahx]QQDFVNWLLAQK-NH2; N-terminus assumed) | 102.1 ± 5.0 | 86.1 ± 1.9 | – | – | – | –
YAEGTFEKEKQQDFVNWLLAQK-NH2 [GIP(1-6)(EKEK)(19-30)NH2] | 8.17 ± 0.87 | 86.8 ± 1.6 | – | – | – | –
YAEGTFISDYSIAMQQDFVNWLLAQK-NH2 [GIP(1-14)(19-30)NH2] | 127 ± 22 | 95.4 ± 0.7 | – | – | – | –
CC(C)C[C@H](NC(=O)[C@H](CC(C)C)NC(=O)[C@H](Cc1c[nH]c2ccccc12)NC(=O)[C@H](CC(N)=O)NC(=O)[C@@H](NC(=O)[C@H](Cc1ccccc1)NC(=O)[C@H](CC(=O)O)NC(=O)[C@H](CCC(N)=O)NC(=O)[C@H](CCC(N)=O)NC(=O)CCCCCNC(=O)CCCCCNC(=O)[C@H](Cc1ccccc1)NC(=O)[C@@H](NC(=O)CNC(=O)[C@H](CCC(=O)O)NC(=O)[C@H](C)NC(=O)[C@@H](N)Cc1ccc(O)cc1)[C@@H](C)O)C(C)C)C(=O)N[C@@H](C)C(=O)N[C@@H](CCC(N)=O)C(=O)N[C@@H](CCCCN)C(N)=O [GIP(1-6)(Ahx)2(19-30)NH2] (H-YAEGTF[Ahx][Ahx]QQDFVNWLLAQK-NH2; N-terminus assumed) | 2.55 ± 0.84 | 75.3 ± 3.3 | – | – | – | –
YAEGTFEKEEKEKEEKEQQDFVNWLLAQK-NH2 | 84.9 ± 8.1 | 75.1 ± 2.7 | – | – | – | –
B1 | – | – | 88.7 | 2410 | 7.21 | –
B2 | – | – | 75.3 | 4980 | 2.55 | –
B3 | – | – | 95.4 | 1370 | 127 | 78.7
YAEGTFEKEKQQDFVNWLLAQK-NH2 (range 1-6;range 19-30) [GIP(1-6)(EKEK)(19-30)NH2] | – | – | 86.8 | 2090 | 8.17 | –
B4 | – | – | 88.2 | 2740 | 1.81 | –
B5 | – | – | 67.1 | 4030 | 13.5 | –
YAEGTFISDYSIAMAAAAQQDFVNWLLAQK-NH2 (range 1-14;range 19-30) [GIP(1-14)(AAAA)(19-30)NH2] | – | – | 100 | 66.3 | 82.1 | 0.0587
B6 | – | – | 75.1 | 4270 | 84.9 | 8390
YAEGTFISDYSIAMEKEKQQDFVNWLLAQK-NH2 (range 1-14;range 19-30) [GIP(1-14)(EKEK)(19-30)NH2] | – | – | 98.7 | 26 | 80.6 | 0.077
B7 | – | – | 62 | 8730 | 95.9 | 14500
